Consider two substances from article PMC4124618.

The series concerns Cc1[nH]c2ccccc2c1CCN. The series is described as follows: steady-state kinetics of halogenation. It counts as biochemical, Lentzea aerocolonigenes. As to conditions: 21 °C.

With RebH (Lentzea aerocolonigenes), the Michaelis constant (Km) is 16.8 ± 3.8 µM, the kcat turned out to be 0.06 ± 0.0057 s⁻¹ and the kcat/Km worked out at 3600 M⁻¹ s⁻¹.
On to “RebH (Lentzea aerocolonigenes; E423D/E461G/K145M/M71V/N166S/Q494R/S130L/S2P)”, for which, under “variant 3-LSR”, the Km was determined as 40.2 ± 3.7 µM, the kcat came to 0.013 ± 0.00036 s⁻¹ and the kcat/Km is 330 M⁻¹ s⁻¹.

The Km is the concentration of substrate that gives half-maximal velocity. The kcat is the number of substrate molecules converted per active site and unit of time at saturation. By kcat/Km is commonly meant the second-order rate constant that governs catalysis at low substrate concentration.
